Reference: article PMC4359074

Biological target: mono-nucleosome di-methylated at H3K4 (Xenopus)
Experiment: native gel or EMSA

Kd: 10 µM
Binder: TLYCFCQRVSFGEMVACDGPNCKYEWFHYDCVNLKEPPKGTWYCPECKIE (domain or fragment, modifications not checked) [GST-PHD_(Yng2)]
